Measured values reported in paper PMC9605866, “Structures of the TMC-1 complex illuminate mechanosensory transduction” (Nature, 2022).

B1: transmembrane channel-like protein 1 (TMC-1) with C-terminal mVenus and 3×Flag tag, from tmc-1::mVenus knock-in worms (natural protein, C. elegans, UniProt D3KZG3 1-1285, looked up)
chain: MQEAARRASLRKEHTPTNEKFGDLSKQDSLGERASSKLTLDDELYDILYAFGETDAFINKGDKQRETDEDGNPLTRQALLERIRQKKEVIGKLRCQAWSMTRKRRTLKLAQKYLEQHESKVSRSHLYMEEMRKRARLMKRSFSNFKTYLIPWESKIKRIESHFGSVVSSYFTFLRWIVFVNIMITLIALVFVVLPETLADSVANEGRFNRTKTRKQIPANERVHADELAVVWHYDGYLRYSPLFYGYYSDDPFLGNKIKYALPLAYFMVTLTIFAYSFFAILRKMAANARMSKLSGSKAEQYIFNWKLFTGWDYTIGNSETASNTVMAVVIKLRESIADIKKDAHGKFRLLQFSLRVFANIIICAMLGFSIYCIIFAVQKSQVQDDGNLFTKNQVPSVVSTITHVFPMIFDLIGKMENYHPRTALRAHLGRVLILYTVNYITLIFALFEKMTALRDRVNSTSTSSSHRTKRQQGGWNPNMQRPPPYASRAEVRQMSDFLAANTRRFQTVSQRTTRSVTTPFTVAPQFGPFNVNNPNAVFHNGTHSTSFESQILGPKALPIFTPPPRKYPGFTPGNVGQQFGGPDFPRNQVYTKSTPLPRVRTKPPWVYTTTHPPLVQNRAMTTTMSKSAKKGNSKNLDDDILLSNETIQMSEAALRRNHDGHNNDICWETIIGQEIVKLVTMDLIFTILSILVIDLFRGLWIKYCSSWWCWDIETTFPEYGEFKVAENVLHIINNQGMIWLGLFFAPLLPAINNIKLIILMYIRGWAVMTCNVPAREIFRASRSSNFYLGILLIWLLLCTLPVGFVIASMSPSRSCGPFARYQHFYTVVTREIEKRVDQTVLSYIRHIASPGVVIPIILFLILIIYFLFSLVRGLREANTDLQAQLVHERTEEKKKIFELAGGKKNKFEKDRDKKRSNDYIPLIEQRRREPWRQYHEMEADHALASDSSEESDINEDEDDERQPLTAYPLRAIETPPETLQVTAFHPSLGSLIENREMEDEESASGDQLPMIHKSVSFQGPSHMQMRQSISTESCSQISRSAIQVATPEEIRALLRPYLEAKYGIPYQHGIKSFPIDVHTPPNNTPSRRSSKYNSFVSLYEHTRDDHKNFVASTIKETDEDPGKSDKKQTSSKDVAPDFMPWPSADEARALREKMKSKTPLMLTKTTVEEKPKGGKSSESEFRPPVPIHRKYNIQTTEEENEEEETDSAPESSKKRFRISVSPTKTIAPASASRAQHKIVSQASSSSSIPHGRQPDPNKKASLVLPPLRAPRVQFDEDDSPRQID
notes: TMC-1, C. elegans, endogenous gene (Wormbase T13G4.3.1); mVenus-3×Flag inserted immediately before the stop codon, PreScission (3C) site between the C terminus of TMC-1 and mVenus; residues M1 to D1285; that sample was afterwards eluted by 3C cleavage and run on SEC) and as imaged in SiMPull (Flag peptide elution, mVenus kept); also called TMC-1-mVenus-3×Flag; mVenus-tagged TMC-1; source: …
B2: transmembrane channel-like protein 1 (TMC-1), native, after 3C protease elution (natural protein, C. elegans, UniProt D3KZG3 1-1285, looked up)
chain: MQEAARRASLRKEHTPTNEKFGDLSKQDSLGERASSKLTLDDELYDILYAFGETDAFINKGDKQRETDEDGNPLTRQALLERIRQKKEVIGKLRCQAWSMTRKRRTLKLAQKYLEQHESKVSRSHLYMEEMRKRARLMKRSFSNFKTYLIPWESKIKRIESHFGSVVSSYFTFLRWIVFVNIMITLIALVFVVLPETLADSVANEGRFNRTKTRKQIPANERVHADELAVVWHYDGYLRYSPLFYGYYSDDPFLGNKIKYALPLAYFMVTLTIFAYSFFAILRKMAANARMSKLSGSKAEQYIFNWKLFTGWDYTIGNSETASNTVMAVVIKLRESIADIKKDAHGKFRLLQFSLRVFANIIICAMLGFSIYCIIFAVQKSQVQDDGNLFTKNQVPSVVSTITHVFPMIFDLIGKMENYHPRTALRAHLGRVLILYTVNYITLIFALFEKMTALRDRVNSTSTSSSHRTKRQQGGWNPNMQRPPPYASRAEVRQMSDFLAANTRRFQTVSQRTTRSVTTPFTVAPQFGPFNVNNPNAVFHNGTHSTSFESQILGPKALPIFTPPPRKYPGFTPGNVGQQFGGPDFPRNQVYTKSTPLPRVRTKPPWVYTTTHPPLVQNRAMTTTMSKSAKKGNSKNLDDDILLSNETIQMSEAALRRNHDGHNNDICWETIIGQEIVKLVTMDLIFTILSILVIDLFRGLWIKYCSSWWCWDIETTFPEYGEFKVAENVLHIINNQGMIWLGLFFAPLLPAINNIKLIILMYIRGWAVMTCNVPAREIFRASRSSNFYLGILLIWLLLCTLPVGFVIASMSPSRSCGPFARYQHFYTVVTREIEKRVDQTVLSYIRHIASPGVVIPIILFLILIIYFLFSLVRGLREANTDLQAQLVHERTEEKKKIFELAGGKKNKFEKDRDKKRSNDYIPLIEQRRREPWRQYHEMEADHALASDSSEESDINEDEDDERQPLTAYPLRAIETPPETLQVTAFHPSLGSLIENREMEDEESASGDQLPMIHKSVSFQGPSHMQMRQSISTESCSQISRSAIQVATPEEIRALLRPYLEAKYGIPYQHGIKSFPIDVHTPPNNTPSRRSSKYNSFVSLYEHTRDDHKNFVASTIKETDEDPGKSDKKQTSSKDVAPDFMPWPSADEARALREKMKSKTPLMLTKTTVEEKPKGGKSSESEFRPPVPIHRKYNIQTTEEENEEEETDSAPESSKKRFRISVSPTKTIAPASASRAQHKIVSQASSSSSIPHGRQPDPNKKASLVLPPLRAPRVQFDEDDSPRQID
modifications: N-glycan at N209
notes: TMC-1, C. elegans, endogenous gene (Wormbase T13G4.3.1); residues M1 to D1285; not modelled: M1-P73, S460-N663, L886-D1285; Residues of the 3C site may remain at the C terminus after cleavage; Two copies stand in the complex (two-fold symmetric dimer); also called TMC-1 subunit; TMC-1 protomer; source: endogenous tmc-1 locus, tmc-1::mVenus knock-in worms; purified (anti-Flag M2 resin, 3C protease …)

Experiments:
[1] = molecular target: the molecule itself; test: single-molecule pulldown (SiMPull) with photobleaching step counting; SEC-purified mVenus-tagged TMC-1 complex (Flag peptide elution) diluted 1:200, captured on biotinylated anti-GFP nanobody on streptavidin/PEG slides, TIRF; 20 mM Tris pH 8.0, 150 mM NaCl, 0.02% GDN, 3 mM CaCl2; 600 molecules from 3 movies
[2] = molecular target: the molecule itself; test: cryo-EM structure; native TMC-1 complex in GDN, 20 mM Tris-Cl pH 8.5, 150 mM NaCl, 3 mM CaCl2, on 2 nm carbon-coated grids; one dataset, three classes: expanded, contracted, with ARRD-6

Protein	stoichiometry N [1]	stoichiometry N [2]
B1	2	
B2		2
